The record followed here is article PMC2712759 (2009).

For this test, the target named is purified recombinant Hsp70 (UniProt P0DMV8 1-641).
purified recombinant Hsp70, sequence (P0DMV8 whole entry): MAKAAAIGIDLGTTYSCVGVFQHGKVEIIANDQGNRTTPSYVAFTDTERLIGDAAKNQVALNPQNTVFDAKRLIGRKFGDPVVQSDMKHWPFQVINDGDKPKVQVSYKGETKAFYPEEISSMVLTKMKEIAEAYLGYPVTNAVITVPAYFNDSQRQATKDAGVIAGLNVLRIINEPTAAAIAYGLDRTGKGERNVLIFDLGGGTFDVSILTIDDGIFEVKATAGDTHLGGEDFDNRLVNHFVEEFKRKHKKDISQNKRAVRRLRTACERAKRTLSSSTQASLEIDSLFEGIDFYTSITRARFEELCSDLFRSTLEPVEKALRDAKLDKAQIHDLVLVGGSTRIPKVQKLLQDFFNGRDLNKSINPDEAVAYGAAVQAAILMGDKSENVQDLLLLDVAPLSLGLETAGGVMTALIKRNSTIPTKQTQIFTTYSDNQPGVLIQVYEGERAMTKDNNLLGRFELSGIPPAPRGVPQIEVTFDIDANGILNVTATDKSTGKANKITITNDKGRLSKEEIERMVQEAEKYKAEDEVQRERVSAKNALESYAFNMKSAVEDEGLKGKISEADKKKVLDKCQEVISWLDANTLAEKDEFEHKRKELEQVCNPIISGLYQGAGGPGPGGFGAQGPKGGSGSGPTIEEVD

B1: recombinant normal PABPN1 (wt-PABPN1) from E. coli (natural protein)
chain: MAAAAAAAAAAGAAGGRGSGPGRRRHLVPGAGGEAGEGAPGGAGDYGNGLESEELEPEELLLEPEPEPEPEEEPPRPRAPPGAPGPGPGSGAPGSQEEEEEPGLVEGDPGDGAIEDPELEAIKARVREMEEEAEKLKELQNEVEKQMNMSPPPGNAGPVIMSIEEKMEADARSIYVGNVDYGATAEELEAHFHGCGSVNRVTILCDKFSGHPKGFAYIEFSDKESVRTSLALDESLFRGRQIKVIPKRTNRPGISTTDRGFPRARYRARTTNYNSSRSRFYSGFNSRPRGRVYRGRARATSWYSPY
As for B1, the dissociation constant Kd was 14 µM.

In general, Kd refers to the concentration at which binding is half-saturated.
